Reference: patent US20090215686A1

Target: Met on MDCK (Madin-Darby canine kidney) cells (canine) (UniProt Q75ZY9)
Test: cell-based or functional assay

Substance: NK1 version of the receptor-binding mutant K1M (E195A:R197A:Y198A) (from UniProt P14210 28-209) (ligand)
- concentration at which agonistic activity is seen (MDCK colony scatter): > 10 nM

Substance: NK1 version of the receptor-binding mutant K1N (E159A:S161A:E195A:R197A:Y198A) (from UniProt P14210 28-209) (ligand)
- concentration at which agonistic activity is seen (MDCK colony scatter): 100 nM
